We go through 4 substances from PMC6658616, “Novel Peptide Conjugates of Modified Oligonucleotides for Inhibition of Bacterial RNase P” (Frontiers in Pharmacology, 2019).

For one data set, the system named is A. baumannii. The data set is described as follows: Conjugate penetration into bacterial cells, flow cytometry. Type of data set: cell-based, Acinetobacter baumannii. As to conditions: 1 µM conjugate in LB medium, 1 h at 37°C, 3'-fluorescein label, mean ± SD from four independent experiments.
Another data set deals with E. coli. The description is as above. As to conditions: 1 µM conjugate in LB medium, 1 h at 37°C, 3'-fluorescein label, mean ± SD from four independent experiments. Type of data set: cell-based, Escherichia coli.

Consider “5’-Pept1-d(CAAGCAGCxCxTxAxCxCxC)–Flu-3’ [5'-Pept1-pgd-inh3-Flu, 5’-Pept1 conjugate of pgd-inh3 with 3’-fluorescein]”, for which, in the data set on A. baumannii, the “Level of penetration, %, A. baumannii” value is reported as 1,8±0,2%. Besides, the “Level of penetration, %, E.coli” value with E. coli was 4,1±0,1%.
As for “5’-Pept2-d(CAAGCAGCxCxTxAxCxCxC)–Flu-3’ [5'-Pept2-pgd-inh3-Flu, 5’-Pept2 conjugate of pgd-inh3 with 3’-fluorescein]”, the “Level of penetration, %, A. baumannii” value with A. baumannii was 6,5±0,5%; with A. baumannii (listed as 5’-Pept2 -pgd-inh3- Flu), 6.5%. Moreover, the “Level of penetration, %, E.coli” value in the data set on E. coli is on record as 5,3±0,3%.
In the case of “5’-Pept3-d(CAAGCAGCxCxTxAxCxCxC)–Flu-3’ [5'-Pept3-pgd-inh3-Flu, 5’-Pept3 conjugate of pgd-inh3 with 3’-fluorescein]”, the “Level of penetration, %, A. baumannii” value in the data set with A. baumannii is given as 1,7±0,3%. Besides, in the data set on E. coli, the “Level of penetration, %, E.coli” value was 7,0±1%.
Consider “5’-Pept4-d(CAAGCAGCxCxTxAxCxCxC)–Flu-3’ [5'-Pept4-pgd-inh3-Flu, 5’-Pept4 conjugate of pgd-inh3 with 3’-fluorescein]”, for which the “Level of penetration, %, A. baumannii” value in the data set on A. baumannii is reported as 2,0±0,3%. Also, the “Level of penetration, %, E.coli” value with E. coli is given as 6,4±0,2%.
